Here are results for one substance from article PMC4729479.

This experiment has as its target hemagglutinin-esterase-fusion glycoprotein (HEF) of influenza D virus D/swine/Oklahoma/1334/2011, ectodomain (influenza D virus (D/swine/Oklahoma/1334/2011)). The experiment is described as follows: crystal structure.

“hemagglutinin-esterase-fusion glycoprotein (HEF) of influenza D virus D/swine/Oklahoma/1334/2011, ectodomain (domain or fragment)” displayed a stoichiometry N of 3.

As a reminder, the stoichiometry N is a count of units in the complex or per binding partner.
